T1: 4Ig human B7-H3 (human, UniProt Q5ZPR3 29-466, limits assumed)
T1 construct: Soluble analyte in SPR; also called 4Ig-B7H3; 4Ig B7H3
T1 sequence: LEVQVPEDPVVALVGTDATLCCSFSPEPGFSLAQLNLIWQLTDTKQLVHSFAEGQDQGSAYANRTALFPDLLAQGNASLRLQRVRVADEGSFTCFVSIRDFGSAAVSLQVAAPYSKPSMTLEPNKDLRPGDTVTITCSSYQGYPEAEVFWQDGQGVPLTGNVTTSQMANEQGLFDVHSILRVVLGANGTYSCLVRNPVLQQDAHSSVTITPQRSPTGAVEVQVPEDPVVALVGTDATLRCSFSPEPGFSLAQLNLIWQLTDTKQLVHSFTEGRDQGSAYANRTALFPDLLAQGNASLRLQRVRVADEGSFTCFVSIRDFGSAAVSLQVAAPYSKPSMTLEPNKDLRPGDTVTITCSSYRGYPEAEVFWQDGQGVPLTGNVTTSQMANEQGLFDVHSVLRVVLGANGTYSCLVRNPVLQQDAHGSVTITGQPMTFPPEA

B1: chimeric anti-B7H3 IgG (Chimeric Heavy Chain (Parental) + Chimeric Light chain (parental)) (antibody, V domains shown)
VH: QVQLQQSGAELVKPGASVKLSCKASGYTFTNYDINWVRQRPEQGLEWIGWIFPGDGSTQYNEKFKGKATLTTDTSSSTAYMQLSRLTSEDSAVYFCARQTTATWFAYWGQGTLVTVSA
VL: DIVMTQSPATLSVTPGDRVSLSCRASQSISDYLHWYQQKSHESPRLLIKYASQSISGIPSRFSGSGSGSDFTLSINSVEPEDVGVYYCQNGHSFPLTFGAGTKLELKR
notes: Chimeric IgG1 with murine 8H9 variable domains, expressed in HEK293; also called Chimeric IgG; parental chimeric antibody
B2: L3H1 (antibody, human IgG1, kappa, V domains shown)
VH: QVQLVQSGAEVKKPGASVKVSCKASGYTFTNYDINWVRQATGQGLEWIGWIFPGDGSTQYNEKFQGRVTLTTNTSISTAYMELSSLRSEDTAVYYCARQTTATWFAYWGQGTLVTVSS
VL: EIVMTQSPDFQSVTPKEKVTLTCRASQSISDYLHWYQQKPDQSPKLLIKYASQSISGVPSRFSGSGSGSDFTLTINSLEAEDAGVYYCQNGHSFPLTFGQGTKLEIKR
notes: Humanized IgG1, HEK293; chains tied by the L/H names; also called YB8 L3 + YB8 H1
B3: L1H1 (antibody, human IgG1, kappa)
heavy: not shown
light: EIVLTQSPDFQSVTPKEKVTLTCRASQSISDYLHWYQQKPDQSPKLLIKYASQSISGVPSRFSGSGSGSDFTLTINSLEAEDAATYYCQNGHSFPLTFGQGTKLEIKRTVAAPSVFIFPPSDEQLKSGTASVVCLLNNFYPREAKVQWKVDNALQSGNSQESVTEQDSKDSTYSLSSTLTLSKADYEKHKVYACEVTHQGLSSPVTKSFNRGEC
notes: Humanized IgG1, HEK293; chains tied by the L/H names; also called YB8 L1 + YB8 H1
B4: L1H2 (antibody, human IgG1, kappa)
heavy: not shown
light: EIVLTQSPDFQSVTPKEKVTLTCRASQSISDYLHWYQQKPDQSPKLLIKYASQSISGVPSRFSGSGSGSDFTLTINSLEAEDAATYYCQNGHSFPLTFGQGTKLEIKRTVAAPSVFIFPPSDEQLKSGTASVVCLLNNFYPREAKVQWKVDNALQSGNSQESVTEQDSKDSTYSLSSTLTLSKADYEKHKVYACEVTHQGLSSPVTKSFNRGEC
notes: Humanized IgG1, HEK293; chains tied by the L/H names; also called YB8 L1 + YB8 H2
B5: L1H3 (antibody, human IgG1, kappa)
heavy: not shown
light: EIVLTQSPDFQSVTPKEKVTLTCRASQSISDYLHWYQQKPDQSPKLLIKYASQSISGVPSRFSGSGSGSDFTLTINSLEAEDAATYYCQNGHSFPLTFGQGTKLEIKRTVAAPSVFIFPPSDEQLKSGTASVVCLLNNFYPREAKVQWKVDNALQSGNSQESVTEQDSKDSTYSLSSTLTLSKADYEKHKVYACEVTHQGLSSPVTKSFNRGEC
notes: Humanized IgG1, HEK293; chains tied by the L/H names; also called YB8 L1 + YB8 H3
B6: L1H4 (antibody, human IgG1, kappa)
heavy: not shown
light: EIVLTQSPDFQSVTPKEKVTLTCRASQSISDYLHWYQQKPDQSPKLLIKYASQSISGVPSRFSGSGSGSDFTLTINSLEAEDAATYYCQNGHSFPLTFGQGTKLEIKRTVAAPSVFIFPPSDEQLKSGTASVVCLLNNFYPREAKVQWKVDNALQSGNSQESVTEQDSKDSTYSLSSTLTLSKADYEKHKVYACEVTHQGLSSPVTKSFNRGEC
notes: Humanized IgG1, HEK293; chains tied by the L/H names; also called YB8 L1 + YB8 H4
B7: L1H5 (antibody, human IgG1, kappa)
heavy: not shown
light: EIVLTQSPDFQSVTPKEKVTLTCRASQSISDYLHWYQQKPDQSPKLLIKYASQSISGVPSRFSGSGSGSDFTLTINSLEAEDAATYYCQNGHSFPLTFGQGTKLEIKRTVAAPSVFIFPPSDEQLKSGTASVVCLLNNFYPREAKVQWKVDNALQSGNSQESVTEQDSKDSTYSLSSTLTLSKADYEKHKVYACEVTHQGLSSPVTKSFNRGEC
notes: Humanized IgG1, HEK293; chains tied by the L/H names; also called YB8 L1 + YB8 H5
B8: L1H6 (antibody, human IgG1, kappa)
heavy: not shown
light: EIVLTQSPDFQSVTPKEKVTLTCRASQSISDYLHWYQQKPDQSPKLLIKYASQSISGVPSRFSGSGSGSDFTLTINSLEAEDAATYYCQNGHSFPLTFGQGTKLEIKRTVAAPSVFIFPPSDEQLKSGTASVVCLLNNFYPREAKVQWKVDNALQSGNSQESVTEQDSKDSTYSLSSTLTLSKADYEKHKVYACEVTHQGLSSPVTKSFNRGEC
notes: Humanized IgG1, HEK293; chains tied by the L/H names; also called YB8 L1 + YB8 H6
B9: L2H1 (antibody, human IgG1, kappa)
heavy: not shown
light: EIVMTQSPDFQSVTPKEKVTITCRASQSISDYLHWYQQKPDQSPKLLIKYASQSISGVPSRFSGSGSGSDFTLTINSLEAEDAATYYCQNGHSFPLTFGQGTKLEIKRTVAAPSVFIFPPSDEQLKSGTASVVCLLNNFYPREAKVQWKVDNALQSGNSQESVTEQDSKDSTYSLSSTLTLSKADYEKHKVYACEVTHQGLSSPVTKSFNRGEC
notes: Humanized IgG1, HEK293; chains tied by the L/H names; also called YB8 L2 + YB8 H1
B10: L2H2 (antibody, human IgG1, kappa)
heavy: not shown
light: EIVMTQSPDFQSVTPKEKVTITCRASQSISDYLHWYQQKPDQSPKLLIKYASQSISGVPSRFSGSGSGSDFTLTINSLEAEDAATYYCQNGHSFPLTFGQGTKLEIKRTVAAPSVFIFPPSDEQLKSGTASVVCLLNNFYPREAKVQWKVDNALQSGNSQESVTEQDSKDSTYSLSSTLTLSKADYEKHKVYACEVTHQGLSSPVTKSFNRGEC
notes: Humanized IgG1, HEK293; chains tied by the L/H names; also called YB8 L2 + YB8 H2
B11: L2H3 (antibody, human IgG1, kappa)
heavy: not shown
light: EIVMTQSPDFQSVTPKEKVTITCRASQSISDYLHWYQQKPDQSPKLLIKYASQSISGVPSRFSGSGSGSDFTLTINSLEAEDAATYYCQNGHSFPLTFGQGTKLEIKRTVAAPSVFIFPPSDEQLKSGTASVVCLLNNFYPREAKVQWKVDNALQSGNSQESVTEQDSKDSTYSLSSTLTLSKADYEKHKVYACEVTHQGLSSPVTKSFNRGEC
notes: Humanized IgG1, HEK293; chains tied by the L/H names; Lead candidate; also called YB8 L2 + YB8 H3
B12: L2H4 (antibody, human IgG1, kappa)
heavy: not shown
light: EIVMTQSPDFQSVTPKEKVTITCRASQSISDYLHWYQQKPDQSPKLLIKYASQSISGVPSRFSGSGSGSDFTLTINSLEAEDAATYYCQNGHSFPLTFGQGTKLEIKRTVAAPSVFIFPPSDEQLKSGTASVVCLLNNFYPREAKVQWKVDNALQSGNSQESVTEQDSKDSTYSLSSTLTLSKADYEKHKVYACEVTHQGLSSPVTKSFNRGEC
notes: Humanized IgG1, HEK293; chains tied by the L/H names; Lead candidate; also called YB8 L2 + YB8 H4
B13: L2H5 (antibody, human IgG1, kappa)
heavy: not shown
light: EIVMTQSPDFQSVTPKEKVTITCRASQSISDYLHWYQQKPDQSPKLLIKYASQSISGVPSRFSGSGSGSDFTLTINSLEAEDAATYYCQNGHSFPLTFGQGTKLEIKRTVAAPSVFIFPPSDEQLKSGTASVVCLLNNFYPREAKVQWKVDNALQSGNSQESVTEQDSKDSTYSLSSTLTLSKADYEKHKVYACEVTHQGLSSPVTKSFNRGEC
notes: chains tied by the L/H names; Selected lead; also called YB8-L2H5; YB8 L2 + YB8 H5
B14: L2H6 (antibody, human IgG1, kappa)
heavy: not shown
light: EIVMTQSPDFQSVTPKEKVTITCRASQSISDYLHWYQQKPDQSPKLLIKYASQSISGVPSRFSGSGSGSDFTLTINSLEAEDAATYYCQNGHSFPLTFGQGTKLEIKRTVAAPSVFIFPPSDEQLKSGTASVVCLLNNFYPREAKVQWKVDNALQSGNSQESVTEQDSKDSTYSLSSTLTLSKADYEKHKVYACEVTHQGLSSPVTKSFNRGEC
notes: Humanized IgG1, HEK293; chains tied by the L/H names; also called YB8 L2 + YB8 H6
B15: L3H2 (antibody, human IgG1, kappa, V domains shown)
VH: QVQLQQSGAEVKKPGASVKVSCKASGYTFTNYDINWVRQATGQGLEWIGWIFPGDGSTQYNEKFKGRATLTRNTSISTAYMELSSLRSEDTAVYYCARQTTATWFAYWGQGTLVTVSS
VL: EIVMTQSPDFQSVTPKEKVTLTCRASQSISDYLHWYQQKPDQSPKLLIKYASQSISGVPSRFSGSGSGSDFTLTINSLEAEDAGVYYCQNGHSFPLTFGQGTKLEIKR
notes: Humanized IgG1, HEK293; chains tied by the L/H names; also called YB8 L3 + YB8 H2
B16: L3H3 (antibody, human IgG1, kappa, V domains shown)
VH: QVQLVQSGAEVKKPGASVKVSCKASGYTFTNYDINWVRQATGQGLEWMGWIFPGDGSTQYNEKFKGRVTLTRNTSISTAYMELSSLRSEDTAVYFCARQTTATWFAYWGQGTLVTVSS
VL: EIVMTQSPDFQSVTPKEKVTLTCRASQSISDYLHWYQQKPDQSPKLLIKYASQSISGVPSRFSGSGSGSDFTLTINSLEAEDAGVYYCQNGHSFPLTFGQGTKLEIKR
notes: Humanized IgG1, HEK293; chains tied by the L/H names; also called YB8 L3 + YB8 H3
B17: L3H4 (antibody, human IgG1, kappa, V domains shown)
VH: QVQLVQSGAEVKKPGASVKVSCKASGYTFTNYDINWVRQATGQGLEWIGWIFPGDGSTQYNEKFQGRVTMTTNTSISTAYMELSSLRSEDTAVYFCARQTTATWFAYWGQGTLVTVSS
VL: EIVMTQSPDFQSVTPKEKVTLTCRASQSISDYLHWYQQKPDQSPKLLIKYASQSISGVPSRFSGSGSGSDFTLTINSLEAEDAGVYYCQNGHSFPLTFGQGTKLEIKR
notes: Humanized IgG1, HEK293; chains tied by the L/H names; also called YB8 L3 + YB8 H4

Biological target: T1, 4Ig human B7-H3
Test: SPR, Carterra LSA; antibody captured on anti-human Fc lawn, 4Ig human B7-H3 as analyte
Protocol: Chimeric and humanized antibodies were generated using CDR grafting methods using closely homologous human germline sequences. Six different humanized VH and four humanized VL sequences were combined to generate 24 different humanized IgG1 antibodies. The antibodies were expressed in HEK293 cells and purified using Protein A resin. Antibodies were buffer exchanged into PBS and quantified by OD280 and titer was calculated. Sample purity and aggregation status was determined by analytical Size Exclusion Chromatography (SEC-HPLC), which separates molecules based on molecular mass and hydrodynamic volume. Area % of each peak is calculated based on total area of the peaks. Peak symmetry is calculated to determine the peak fronting (<1) or tailing (>1). A column of 300A pore size was used for detection at 280 nm and PBS as the running buffer. Surface plasmon resonance studies to assess binding affinities were carried out on a Carterra LSA instrument. An anti-human Fc antibody “lawn” was prepared on a HC30M chip by amine coupling. The chip was activated with equal volume of 100 mM MES pH 5.5, 100 mM S-NHS and 400 mM EDC. The anti-human IgG Fc antibody was immobilized. The chip was deactivated with 1 M ethanolamine pH 8.5. Antibodies were diluted and printed onto the anti-human Fc lawn. An 8-point series of 4Ig human B7-H3 was prepared.
The characterization data, including expression titers (mg of purified protein per L of culture), purity (% monomer peak by analytical SEC-HPLC) and affinity measurement by SPR (ka, kd and KD) are summarized in Table 1 and FIG. 1-4.

| Binder | Kd | koff | kon |
| --- | --- | --- | --- |
| B1 | 10 nM | 0.00079 s⁻¹ | 78000 M⁻¹ s⁻¹ |
| B2 | 10 nM | 0.00034 s⁻¹ | 34000 M⁻¹ s⁻¹ |
| B3 | 15 nM | 0.00043 s⁻¹ | 31000 M⁻¹ s⁻¹ |
| B4 | 14 nM | 0.00041 s⁻¹ | 29000 M⁻¹ s⁻¹ |
| B5 | 8.1 nM | 0.00035 s⁻¹ | 43000 M⁻¹ s⁻¹ |
| B6 | 9.5 nM | 0.00041 s⁻¹ | 43000 M⁻¹ s⁻¹ |
| B7 | 11 nM | 0.00042 s⁻¹ | 39000 M⁻¹ s⁻¹ |
| B8 | 25 nM | 0.00066 s⁻¹ | 26000 M⁻¹ s⁻¹ |
| B9 | 11 nM | 0.00041 s⁻¹ | 39000 M⁻¹ s⁻¹ |
| B10 | 11 nM | 0.00037 s⁻¹ | 33000 M⁻¹ s⁻¹ |
| B11 | 9.9 nM | 0.00034 s⁻¹ | 34000 M⁻¹ s⁻¹ |
| B12 | 8.2 nM | 0.00036 s⁻¹ | 44000 M⁻¹ s⁻¹ |
| B13 | 9.4 nM | 0.0004 s⁻¹ | 42000 M⁻¹ s⁻¹ |
| B14 | 24 nM | 0.00051 s⁻¹ | 21000 M⁻¹ s⁻¹ |
| B15 | 11 nM | 0.00035 s⁻¹ | 32000 M⁻¹ s⁻¹ |
| B16 | 9.7 nM | 0.00032 s⁻¹ | 32000 M⁻¹ s⁻¹ |
| B17 | 8.4 nM | 0.00033 s⁻¹ | 40000 M⁻¹ s⁻¹ |
